Laboratory results as given in paper PMC3462610 (Biochemical Journal, 2011).
Where no end group is shown, it is not given here.

Legend:
[1] = test system: JNK1; assay: Co-immunoprecipitation of endogenous WDR62 with JNK1, HEK-293T; assay type: binding, human; conditions: authors attribute it to lower JNK1 expression level
[2] = test system: endogenous JNK2; assay: Co-immunoprecipitation of endogenous WDR62 with JNK2, HEK-293T; assay type: binding, human; conditions: anti-WDR62 3G8
[3] = test system: JNK3; assay: GST pull-down with WDR62 1018-C–GST constructs; assay type: binding, human; conditions: HEK-293T
[4] = test system: Endogenous MKK7; assay: Co-immunoprecipitation of endogenous WDR62 with MKK7, HEK-293T; assay type: binding, human; conditions: anti-WDR62 3G8
[5] = test system: EGFP–JNK1; assay: Immunofluorescence, recruitment of EGFP–JNK1 to cellular granules in HeLa cells; assay type: cell-based, human; conditions: 24 h after transfection, confocal microscopy
[6] = biological target: activated His–JNK2–FLAG (Homo sapiens, UniProt P45984); assay: biochemical
Chain of activated His–JNK2–FLAG (P45984 whole entry): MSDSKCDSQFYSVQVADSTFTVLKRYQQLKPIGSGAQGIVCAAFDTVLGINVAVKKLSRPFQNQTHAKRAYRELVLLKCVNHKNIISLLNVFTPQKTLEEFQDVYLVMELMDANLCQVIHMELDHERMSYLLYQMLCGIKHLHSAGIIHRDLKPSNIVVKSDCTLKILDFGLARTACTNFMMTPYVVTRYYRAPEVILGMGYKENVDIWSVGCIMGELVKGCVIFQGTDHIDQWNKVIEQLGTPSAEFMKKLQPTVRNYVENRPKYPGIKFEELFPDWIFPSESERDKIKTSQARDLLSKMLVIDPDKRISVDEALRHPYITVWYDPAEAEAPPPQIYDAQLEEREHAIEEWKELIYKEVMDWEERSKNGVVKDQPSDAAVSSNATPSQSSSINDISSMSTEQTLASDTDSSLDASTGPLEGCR

[7] = test system: HA–JNK2; assay: Co-immunoprecipitation of HA–JNK2 with Myc-tagged WDR62 constructs, HEK-293T; assay type: binding, human; conditions: quantified, means±S.D., three independent experiments
[8] = test system: HA–JNK1; assay: GST pull-down with WDR62 1018-C–GST constructs; assay type: binding, human; conditions: HEK-293T
[9] = test system: HA–JNK2; assay: GST pull-down with WDR62 1018-C–GST constructs; assay type: binding, human; conditions: HEK-293T
[10] = test system: His–JNK2; assay: In vitro protein-binding assay; design: species or system human; conditions: purified proteins, 2 h at 37°C, amylose resin
[11] = test system: His–MKK7β1; assay: In vitro protein-binding assay; design: species or system human; conditions: purified proteins, 2 h at 37°C, amylose resin
[12] = test system: WDR62; assay: GST pull-down of MKK4 with WDR62 fragments; assay type: binding, human; conditions: HEK-293T, compared with MKK7–WDR62
[13] = test system: MKK7α and MKK7β; conditions: cited from earlier work

WDR62: full-length WDR62 (endogenous, or Myc-tagged wild-type); JNK scaffold protein
interaction with JNK1 [1]: lack of interaction | co-precipitation of endogenous JNK2 [2]: presence of endogenous JNK2 | association with JNK3 [3]: strongest association with the neuronal-enriched JNK3 isoform | co-precipitation of endogenous MKK7 [4]: also detected | recruitment of EGFP–JNK1 to cellular granules [5]: efficiently recruited to these granules

GRKKRRQRRRPPNHEARANLRLTLSSACDGLL [WDR62 peptide]
IC50 [6]: 5 µM

B1: Myc-N-1284: Myc-tagged WDR62 aa 1–1284 (protein)
chain: MAAVGSGGYARNDAGEKLPSVMAGVPARRGQSSPPPAPPICLRRRTRLSTASEETVQNRVSLEKVLGITAQNSSGLTCDPGTGHVAYLAGCVVVILDPKENKQQHIFNTARKSLSALAFSPDGKYIVTGENGHRPAVRIWDVEEKNQVAEMLGHKYGVACVAFSPNMKHIVSMGYQHDMVLNVWDWKKDIVVASNKVSCRVIALSFSEDSSYFVTVGNRHVRFWFLEVSTETKVTSTVPLVGRSGILGELHNNIFCGVACGRGRMAGSTFCVSYSGLLCQFNEKRVLEKWINLKVSLSSCLCVSQELIFCGCTDGIVRIFQAHSLHYLANLPKPHYLGVDVAQGLEPSFLFHRKAEAVYPDTVALTFDPIHQWLSCVYKDHSIYIWDVKDINRVGKVWSELFHSSYVWNVEVYPEFEDQRACLPSGSFLTCSSDNTIRFWNLDSSPDSHWQKNIFSNTLLKVVYVENDIQHLQDMSHFPDRGSENGTPMDVKAGVRVMQVSPDGQHLASGDRSGNLRIHELHFMDELVKVEAHDAEVLCLEYSKPETGLTLLASASRDRLIHVLNVEKNYNLEQTLDDHSSSITAIKFAGNRDIQMISCGADKSIYFRSAQQGSDGLHFVRTHHVAEKTTLYDMDIDITQKYVAVACQDRNVRVYNTVNGKQKKCYKGSQGDEGSLLKVHVDPSGTFLATSCSDKSISVIDFYSGECIAKMFGHSEIITSMKFTYDCHHLITVSGDSCVFIWHLGPEITNCMKQHLLEIDHRQQQQHTNDKKRSGHPRQDTYVSTPSEIHSLSPGEQTEDDLEEECEPEEMLKTPSKDSLDPDPRCLLTNGKLPLWAKRLLGDDDVADGLAFHAKRSYQPHGRWAERAGQEPLKTILDAQDLDCYFTPMKPESLENSILDSLEPQSLASLLSESESPQEAGRGHPSFLPQQKESSEASELILYSLEAEVTVTGTDSQYCRKEVEAGPGDQQGDSYLRVSSDSPKDQSPPEDSGESEADLECSFAAIHSPAPPPDPAPRFATSLPHFPGCAGPTEDELSLPEGPSVPSSSLPQTPEQEKFLRHHFETLTESPCRELFPAALGDVEASEAEDHFFNPRLSISTQFLSSLQKASRFTHTFPPRATQCLVKSPEVKLMDRGGSQPRAGTGYASPDRTHVLAAGKAEETLEAWRPPPPCLTSLASCVPASSVLPTDRNLPTPTSAPTPGLAQGVHAPSTCSYMEATASSRARISRSISLGDSEGPIVATLAQPLRRPSSVGELASLGQELQAITTATTPSLDSEGQEPA
reduction of precipitated JNK2 as compared with CS2 and CS5 full-length proteins [7]: 7 -fold

B2: 1018-CΔD–GST: WDR62-1018-C lacking the D domain fused to GST (protein)
chain: RFATSLPHFPGCAGPTEDELSLPEGPSVPSSSLPQTPEQEKFLRHHFETLTESPCRELFPAALGDVEASEAEDHFFNPRLSISTQFLSSLQKASRFTHTFPPRATQCLVKSPEVKLMDRGGSQPRAGTGYASPDRTHVLAAGKAEETLEAWRPPPPCLTSLASCVPASSVLPTDRNLPTPTSAPTPGLAQGVHAPSTCSYMEATASSRARISRSISLGDSEGPIVATLAQPLRRPSSVGELASLGQELQAITTATTPSLDSEGQEPALRSWGNHEASSACDGLLQPPVDTQPGVTVPAVSFPAPSPVEESALRLHGSAFRPSLPAPESPGLPAHPSNPQLPEARPGIPGGTASLLEPTSGALGLLQGSPARWSEPWVPVEALPPSPLELSRVGNILHRLQTTFQEALDLYRVLVSSGQVDTGQQQARTELVSTFLWIHSQLEAECLVGTSVAPAQALPSPGPPSPPTLYPLASPDLQALLEHYSELLVQAVRRKARGH
association with HA–JNK1 ([8]; anti-HA/anti-pJNK): relatively weak interaction | pJNK1 in precipitate ([8]; anti-pJNK): no pJNK1/2 was detected | association with HA–JNK2 ([9]; anti-HA/anti-pJNK): relatively weak interaction | pJNK2 in precipitate ([9]; anti-pJNK): no pJNK1/2 was detected

B3: MBP-1018-C: MBP fused to human WDR62 1018-C fragment (protein)
chain: RFATSLPHFPGCAGPTEDELSLPEGPSVPSSSLPQTPEQEKFLRHHFETLTESPCRELFPAALGDVEASEAEDHFFNPRLSISTQFLSSLQKASRFTHTFPPRATQCLVKSPEVKLMDRGGSQPRAGTGYASPDRTHVLAAGKAEETLEAWRPPPPCLTSLASCVPASSVLPTDRNLPTPTSAPTPGLAQGVHAPSTCSYMEATASSRARISRSISLGDSEGPIVATLAQPLRRPSSVGELASLGQELQAITTATTPSLDSEGQEPALRSWGNHEARANLRLTLSSACDGLLQPPVDTQPGVTVPAVSFPAPSPVEESALRLHGSAFRPSLPAPESPGLPAHPSNPQLPEARPGIPGGTASLLEPTSGALGLLQGSPARWSEPWVPVEALPPSPLELSRVGNILHRLQTTFQEALDLYRVLVSSGQVDTGQQQARTELVSTFLWIHSQLEAECLVGTSVAPAQALPSPGPPSPPTLYPLASPDLQALLEHYSELLVQAVRRKARGH
precipitation of His–JNK2 [10]: efficiently precipitated His–JNK2 | precipitation of His–MKK7β1 [11]: efficiently precipitated

B4: MKK4: HA-tagged human MKK4 (protein)
chain: MAAPSPSGGGGSGGGSGSGTPGPVGSPAPGHPAVSSMQGKRKALKLNFANPPFKSTARFTLNPNPTGVQNPHIERLRTHSIESSGKLKISPEQHWDFTAEDLKDLGEIGRGAYGSVNKMVHKPSGQIMAVKRIRSTVDEKEQKQLLMDLDVVMRSSDCPYIVQFYGALFREGDCWICMELMSTSFDKFYKYVYSVLDDVIPEEILGKITLATVKALNHLKENLKIIHRDIKPSNILLDRSGNIKLCDFGISGQLVDSIAKTRDAGCRPYMAPERIDPSASRQGYDVRSDVWSLGITLYELATGRFPYPKWNSVFDQLTQVVKGDPPQLSNSEEREFSPSFINFVNLCLTKDESKRPKYKELLKHPFILMYEERAVEVACYVCKILDQMPATPSSPMYVD
MKK4–WDR62 interaction [12]: weaker than the MKK7–WDR62 interaction

B5: JIP1 scaffold protein: JIP1 (JNK-interacting protein 1) scaffold protein (protein, UniProt Q9UQF2 1-711, looked up)
C-Jun-amino-terminal …: MAERESGGLGGGAASPPAASPFLGLHIASPPNFRLTHDISLEEFEDEDLSEITDECGISLQCKDTLSLRPPRAGLLSAGGGGAGSRLQAEMLQMDLIDATGDTPGAEDDEEDDDEERAARRPGAGPPKAESGQEPASRGQGQSQGQSQGPGSGDTYRPKRPTTLNLFPQVPRSQDTLNNNSLGKKHSWQDRVSRSSSPLKTGEQTPPHEHICLSDELPPQSGPAPTTDRGTSTDSPCRRSTATQMAPPGGPPAAPPGGRGHSHRDRIHYQADVRLEATEEIYLTPVQRPPDAAEPTSAFLPPTESRMSVSSDPDPAAYPSTAGRPHPSISEEEEGFDCLSSPERAEPPGGGWRGSLGEPPPPPRASLSSDTSALSYDSVKYTLVVDEHAQLELVSLRPCFGDYSDESDSATVYDNCASVSSPYESAIGEEYEEAPRPQPPACLSEDSTPDEPDVHFSKKFLNVFMSGRSRSSSAESFGLFSCIINGEEQEQTHRAIFRFVPRHEDELELEVDDPLLVELQAEDYWYEAYNMRTGARGVFPAYYAIEVTKEPEHMAALAKNSDWVDQFRVKFLGSVQVPYHKGNDVLCAAMQKIATTRRLTVHFNPPSSCVLEISVRGVKIGVKADDSQEAKGNKCSHFFQLKNISFCGYHPKNNKYFGFITKHPADHRFACHVFVSEDSTKALAESVGRAFQQFYKQFVEYTCPTEDIYLE
interaction with MKK7α and MKK7β [13]: interacts with both MKK7α and MKK7β
